Test results: article PMC5444383 (Biochemistry, 2016)
Like-named read-outs stand apart in the source and are kept apart here.

Legend:
[1] = test system: O=C(O)CCCC(=O)C(=O)O; experiment: purified protein; details: Fe(II) active-site Fe(II) (MLCT transition)
[2] = molecular target: T1, ethylene-forming enzyme (EFE) (Pseudomonas savastanoi, UniProt P32021); experiment: anaerobic UV-vis difference titration; format: binding
[3] = molecular target: T1, ethylene-forming enzyme (EFE); experiment: anaerobic UV-vis difference titration; format: binding; remark: listed apart in the source

T1 sequence (P32021 whole entry): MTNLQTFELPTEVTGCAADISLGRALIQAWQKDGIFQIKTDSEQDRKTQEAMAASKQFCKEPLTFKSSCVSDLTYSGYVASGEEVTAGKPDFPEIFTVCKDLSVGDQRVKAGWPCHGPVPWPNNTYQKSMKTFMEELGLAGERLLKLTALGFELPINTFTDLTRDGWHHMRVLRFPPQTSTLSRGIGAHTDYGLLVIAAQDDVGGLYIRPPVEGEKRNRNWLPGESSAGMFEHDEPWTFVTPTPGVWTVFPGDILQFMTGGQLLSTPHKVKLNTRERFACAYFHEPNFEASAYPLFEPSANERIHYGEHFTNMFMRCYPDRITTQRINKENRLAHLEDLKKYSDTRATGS

ethylene-forming enzyme (EFE) (Pseudomonas savastanoi pv. phaseolicola)
Km [1]: 31 ± 4 µM | kcat [1]: 0.00417 ± 0.000333 s⁻¹

N=C(N)NCCC[C@H](N)C(=O)O [L-Arg, L-arginine]
Kd [2]: 34 ± 25 µM

O=C(O)CCC(=O)C(=O)O [2OG, 2-oxoglutarate]
Kd [3]: 25 ± 7 µM
